In the supplement of paper PMC6757056:
± gives the standard deviation of the averaged measurements.

B1: library; a variant is named by its letters at N, in order (parent)
chain: GCUGUCACCGGUGUAUUACCCUAGUGGUCGACCGGUCUGAUGAGUCUNNNNNNAGACGAAACAGC

Assays:
hypoxanthine [1] = variants of: B1; assay: normalized RNA/DNA level with ligand (relative to sTRSVctl = 100) (log10 (% of sTRSVctl)); ligand: hypoxanthine (xanthine aptamer); higher = less ribozyme self-cleavage, higher mRNA level; conditions: ligand concentration (+) RNA-Seq: 5 mM, HEK293T, reporter: mCherry (pCS4076), ligand present: yes
In short: (§1)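 Total RNA, extracted with EDTA 72 h after HEK293T cells were transfected with 4 µg per 6-well well of reporter-linked ribozyme switch library plasmids, was reverse-transcribed, amplified, barcoded and sequenced. Ligand, if used, was added 1 h before transfection. RNA level was derived from RNA reads divided by DNA reads and normalized to a spiked-in non-cleaving sequence or to the top sequences. This was multiplied by 100 and log10-transformed, with the top set of 25 sequences and a ≥100 DNA read minimum.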

hypoxanthine [2] = variants of: B1; assay: normalized RNA/DNA level without ligand (relative to sTRSVctl = 100) (log10 (% of sTRSVctl)); ligand: hypoxanthine (xanthine aptamer); higher = less ribozyme self-cleavage, higher mRNA level; conditions: HEK293T, reporter: mCherry (pCS4076), ligand present: no
In short: as §1

Variant	normalized RNA/DNA level with ligand (log10) (hypoxanthine [1])	normalized RNA/DNA level without ligand (log10) (hypoxanthine [2])
AUGAGC	1.8938 ± 0.00087	1.57 ± 0.055
AUGAGU	1.87 ± 0.026	1.44 ± 0.11
AUCUAG	1.91 ± 0.033	1.61 ± 0.019
AUCUAC	1.9 ± 0.12	1.855 ± 0.013
AUCUAU	1.93 ± 0.032	1.83 ± 0.074
GUCUCA	1.965 ± 0.019	1.943 ± 0.0073
GUCUCC	1.99 ± 0.047	1.94 ± 0.084
AUCCUU	1.98 ± 0.027	1.91 ± 0.055
AUGACU	1.95 ± 0.024	1.829 ± 0.016
AUGACC	1.914 ± 0.019	1.902 ± 0.016
UUCGUC	2.0298 ± 0.00024	2.03 ± 0.041
UUCGUU	1.94 ± 0.11	1.84 ± 0.054
UUCGUG	1.964 ± 0.019	1.7 ± 0.041
GUCCUU	1.94 ± 0.11	1.95 ± 0.017
GUCCUG	1.88 ± 0.024	1.52 ± 0.022
CUCGUU	1.94 ± 0.019	2.03 ± 0.063
CUCGUA	1.91 ± 0.02	1.907 ± 0.015
CUCGUG	1.94 ± 0.028	1.81 ± 0.025
CUCGAG	1.9019 ± 0.00066	1.6 ± 0.031
CUCGAC	1.96 ± 0.023	1.808 ± 0.017
GUCUUU	1.946 ± 0.003	1.885 ± 0.0085
GUCUUA	1.932 ± 0.0061	1.87 ± 0.021
GUCUUG	1.9 ± 0.086	1.52 ± 0.066
GUCUUC	1.99 ± 0.042	1.9928 ± 0.0007

Variant	normalized RNA/DNA level with ligand (log10) (hypoxanthine [1])	normalized RNA/DNA level without ligand (log10) (hypoxanthine [2])
AUCGAA	1.863 ± 0.01	1.73 ± 0.04
CUCGGA	1.99 ± 0.03	1.84 ± 0.057
UUCGCU	1.983 ± 0.015	1.87 ± 0.049
UUCGCC	1.95 ± 0.046	1.856 ± 0.015
UUCGCG	1.9036 ± 0.0015	1.84 ± 0.044
CUGAGC	1.947 ± 0.0077	1.79 ± 0.065
UUGACU	1.95 ± 0.077	1.9 ± 0.042
UUGACC	1.96 ± 0.049	1.987 ± 0.011
AUCGGC	1.97 ± 0.099	1.86 ± 0.029
AUCGGU	1.91 ± 0.02	1.6043 ± 0.0014
AUCGGA	1.94 ± 0.044	1.74 ± 0.061
AUCGGG	1.889 ± 0.0042	1.52 ± 0.06
GUCUGC	1.92 ± 0.038	1.707 ± 0.0074
GUCUGA	1.954 ± 0.0094	1.79 ± 0.03
GUCUGU	1.948 ± 0.018	1.841 ± 0.015
GUCUGG	1.878 ± 0.016	1.48 ± 0.0028
UUCUUG	1.92 ± 0.068	1.794 ± 0.016
UUCUUU	1.927 ± 0.013	1.98 ± 0.034
UUCUUA	1.95 ± 0.014	1.883 ± 0.018
UUCUUC	2.01 ± 0.062	2.06 ± 0.039
GUCGUU	1.97 ± 0.057	1.89 ± 0.032
GUCGUG	1.86 ± 0.043	1.37 ± 0.018
GUCGUA	1.91 ± 0.088	1.79 ± 0.073
GUCGUC	2.03 ± 0.088	1.93 ± 0.058

Variant	normalized RNA/DNA level with ligand (log10) (hypoxanthine [1])	normalized RNA/DNA level without ligand (log10) (hypoxanthine [2])
AUCGUU	1.98 ± 0.08	1.87 ± 0.043
AUCGUA	1.898 ± 0.017	1.74 ± 0.024
AUCGUC	2.03 ± 0.048	1.977 ± 0.0058
AUCGUG	1.82 ± 0.047	1.4 ± 0.076
CUCGCU	1.95 ± 0.043	1.924 ± 0.014
CUCGCC	1.99 ± 0.026	1.883 ± 0.0029
CUCGCG	1.983 ± 0.0024	1.9 ± 0.084
CUCGCA	1.94 ± 0.062	1.847 ± 0.002
CUGAAU	1.93 ± 0.062	1.74 ± 0.062
CUGAAC	1.9 ± 0.066	1.76 ± 0.019
GUGAAC	1.9 ± 0.024	1.57 ± 0.046
GUGAAU	1.9 ± 0.024	1.7 ± 0.052
GUGAAA	1.895 ± 0.016	1.66 ± 0.027
CUCUUU	2 ± 0.0092	1.912 ± 0.014
CUCUUG	1.93 ± 0.045	1.87 ± 0.044
CUCUUA	1.895 ± 0.0051	1.825 ± 0.012
CUGACG	1.89 ± 0.057	1.86 ± 0.074
CUGACU	1.99 ± 0.038	1.9 ± 0.072
CUCUAG	1.9 ± 0.0079	1.78 ± 0.011
CUCUAU	2.03 ± 0.035	1.848 ± 0.0086
CUCUAC	1.966 ± 0.013	1.87 ± 0.019
CUCUAA	1.93 ± 0.051	1.8 ± 0.054
UUGAAC	1.92 ± 0.052	1.855 ± 0.01
UUGAAU	1.95 ± 0.03	1.8 ± 0.031

Variant	normalized RNA/DNA level with ligand (log10) (hypoxanthine [1])	normalized RNA/DNA level without ligand (log10) (hypoxanthine [2])
AUCUUA	1.916 ± 0.012	1.827 ± 0.011
AUCUUC	2.02 ± 0.031	2.006 ± 0.0047
AUCUUU	1.99 ± 0.024	1.91 ± 0.046
UUCUGA	2.03 ± 0.036	1.834 ± 0.0034
UUCUGU	1.947 ± 0.0095	1.883 ± 0.018
UUCUGC	1.998 ± 0.019	1.92 ± 0.049
UUCCUC	1.97 ± 0.038	2.04 ± 0.025
UUCCUU	1.92 ± 0.081	1.891 ± 0.0051
GUCGAU	1.93 ± 0.07	1.76 ± 0.039
CUCCUG	1.94 ± 0.021	1.953 ± 0.0068
CUCCUU	1.99 ± 0.087	1.89 ± 0.056
GUCGGU	1.91 ± 0.051	1.83 ± 0.035
UUCGGA	1.95 ± 0.034	1.75 ± 0.044
UUCGGC	1.95 ± 0.098	1.89 ± 0.025
UUCGGG	1.95 ± 0.044	1.73 ± 0.027
AUCUGC	1.97 ± 0.04	1.88 ± 0.022
AUCUGU	1.91 ± 0.026	1.787 ± 0.014
GUCUAU	1.94 ± 0.059	1.82 ± 0.026
GUCUAC	1.94 ± 0.043	1.8 ± 0.018
GUGACA	1.9 ± 0.04	1.78 ± 0.033
GUGACC	1.931 ± 0.012	1.74 ± 0.019
CUCUGA	1.96 ± 0.047	1.944 ± 0.009
CUCUGU	1.963 ± 0.0084	1.94 ± 0.028
CUCUGG	1.937 ± 0.0091	1.75 ± 0.084

Variant	normalized RNA/DNA level with ligand (log10) (hypoxanthine [1])	normalized RNA/DNA level without ligand (log10) (hypoxanthine [2])
UUCUAG	1.936 ± 0.0068	1.67 ± 0.059
UUCUAU	1.95 ± 0.047	1.867 ± 0.016
UUCUAC	1.87 ± 0.041	1.89 ± 0.085
GUCGCU	2.04 ± 0.038	1.904 ± 0.011
GUCGCG	1.93 ± 0.039	1.55 ± 0.055
GUCGCC	1.9 ± 0.05	1.91 ± 0.08
AUCGCA	1.9253 ± 0.0018	1.77 ± 0.028
AUCGCU	1.91 ± 0.024	1.84 ± 0.028
AUCGCG	1.863 ± 0.0079	1.409 ± 0.0031
CUCUCA	1.96 ± 0.0068	1.91 ± 0.027
CUCUCU	1.89 ± 0.034	1.904 ± 0.012
UUCGAC	1.9 ± 0.074	1.781 ± 0.0058
UUCGAG	1.88 ± 0.038	1.544 ± 0.0067
UUCUCA	1.98 ± 0.033	1.918 ± 0.013
UUCUCU	1.99 ± 0.084	1.89 ± 0.051
UUCUCC	1.97 ± 0.072	1.99 ± 0.082
AUCUCU	1.99 ± 0.075	1.937 ± 0.0021
AUCUCA	1.96 ± 0.071	1.89 ± 0.043
AUCUCC	1.97 ± 0.039	1.9 ± 0.058
AUCUCG	1.89 ± 0.024	1.59 ± 0.06
